Test results: the supplement of paper PMC10065799, “High-throughput profiling of sequence recognition by tyrosine kinases and SH2 domains using bacterial peptide display” (eLife, 2023)

How the values were obtained:
SHP2-C SH2 = assay: SH2 binding enrichment of the phosphorylated peptide, bacterial display (enrichment ratio); higher = better substrate or ligand; peptides without Tyr show the background
Grb2 SH2 = Grb2 SH2 (UniProt P62993); assay: as above
c-Src SH2 = assay: as above
FGFR3 = FGFR3 (UniProt P22607); assay: phosphorylation enrichment, bacterial display (enrichment ratio); higher = better substrate or ligand; peptides without Tyr show the background
c-Abl (mouse) = assay: as above
c-Src = assay: as above
AncSZ = assay: as above
Fyn = Fyn (UniProt P06241); assay: as above
Hck = Hck (UniProt P08631); assay: as above
EPHB2 = EPHB2 (UniProt P29323); assay: as above
Jak2 = Jak2 (UniProt O60674); assay: as above
EPHB1 = EPHB1 (UniProt P54762); assay: as above
Fer (mouse) = assay: as above
Fes = Fes (UniProt P07332); assay: as above
MERTK = MERTK (UniProt Q12866); assay: as above
FGFR1 = FGFR1 (UniProt P11362); assay: as above
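Throughout, for SH2 binding enrichment of the phosphorylated peptide, bacterial display: peptide library displayed on the E. coli surface as eCPX fusions, selected cells deep-sequenced, score is each peptide's frequency after selection divided by its frequency in the input.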
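Throughout, for phosphorylation enrichment, bacterial display: 11-residue human phosphosite peptides and single-mutation variants displayed on the E. coli surface, counted by deep sequencing, each peptide's frequency after selection divided by its frequency in the unselected input library; frequency after pTyr selection over input frequency; kinase dosed for 20-30% of maximal phosphorylation in three min.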

Sequence of EPHB1 (P54762 whole entry, looked up): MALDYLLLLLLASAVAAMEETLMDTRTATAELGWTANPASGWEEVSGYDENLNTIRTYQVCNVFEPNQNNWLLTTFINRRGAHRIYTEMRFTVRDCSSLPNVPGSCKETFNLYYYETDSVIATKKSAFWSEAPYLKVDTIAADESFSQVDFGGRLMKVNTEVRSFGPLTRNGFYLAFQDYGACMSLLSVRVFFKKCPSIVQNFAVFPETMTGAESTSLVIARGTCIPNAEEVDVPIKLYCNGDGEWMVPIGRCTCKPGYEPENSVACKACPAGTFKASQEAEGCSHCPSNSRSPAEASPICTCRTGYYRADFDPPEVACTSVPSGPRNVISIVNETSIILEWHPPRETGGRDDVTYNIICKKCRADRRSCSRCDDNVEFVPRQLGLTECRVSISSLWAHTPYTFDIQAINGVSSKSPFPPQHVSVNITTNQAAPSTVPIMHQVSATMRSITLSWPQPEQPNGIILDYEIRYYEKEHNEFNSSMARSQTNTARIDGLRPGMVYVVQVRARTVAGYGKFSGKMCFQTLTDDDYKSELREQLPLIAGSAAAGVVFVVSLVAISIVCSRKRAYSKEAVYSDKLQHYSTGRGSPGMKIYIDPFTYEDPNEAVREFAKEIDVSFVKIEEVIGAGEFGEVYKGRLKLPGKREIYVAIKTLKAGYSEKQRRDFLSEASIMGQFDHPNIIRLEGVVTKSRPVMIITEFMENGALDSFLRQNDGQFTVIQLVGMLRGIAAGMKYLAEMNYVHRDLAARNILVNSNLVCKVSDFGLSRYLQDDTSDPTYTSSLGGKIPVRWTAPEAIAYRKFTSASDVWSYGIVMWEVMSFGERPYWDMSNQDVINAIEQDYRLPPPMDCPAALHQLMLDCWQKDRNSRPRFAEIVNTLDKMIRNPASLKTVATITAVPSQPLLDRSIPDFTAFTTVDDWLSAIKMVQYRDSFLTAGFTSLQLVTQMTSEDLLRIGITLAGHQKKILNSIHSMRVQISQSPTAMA
Sequence of FGFR3 (P22607 whole entry, looked up): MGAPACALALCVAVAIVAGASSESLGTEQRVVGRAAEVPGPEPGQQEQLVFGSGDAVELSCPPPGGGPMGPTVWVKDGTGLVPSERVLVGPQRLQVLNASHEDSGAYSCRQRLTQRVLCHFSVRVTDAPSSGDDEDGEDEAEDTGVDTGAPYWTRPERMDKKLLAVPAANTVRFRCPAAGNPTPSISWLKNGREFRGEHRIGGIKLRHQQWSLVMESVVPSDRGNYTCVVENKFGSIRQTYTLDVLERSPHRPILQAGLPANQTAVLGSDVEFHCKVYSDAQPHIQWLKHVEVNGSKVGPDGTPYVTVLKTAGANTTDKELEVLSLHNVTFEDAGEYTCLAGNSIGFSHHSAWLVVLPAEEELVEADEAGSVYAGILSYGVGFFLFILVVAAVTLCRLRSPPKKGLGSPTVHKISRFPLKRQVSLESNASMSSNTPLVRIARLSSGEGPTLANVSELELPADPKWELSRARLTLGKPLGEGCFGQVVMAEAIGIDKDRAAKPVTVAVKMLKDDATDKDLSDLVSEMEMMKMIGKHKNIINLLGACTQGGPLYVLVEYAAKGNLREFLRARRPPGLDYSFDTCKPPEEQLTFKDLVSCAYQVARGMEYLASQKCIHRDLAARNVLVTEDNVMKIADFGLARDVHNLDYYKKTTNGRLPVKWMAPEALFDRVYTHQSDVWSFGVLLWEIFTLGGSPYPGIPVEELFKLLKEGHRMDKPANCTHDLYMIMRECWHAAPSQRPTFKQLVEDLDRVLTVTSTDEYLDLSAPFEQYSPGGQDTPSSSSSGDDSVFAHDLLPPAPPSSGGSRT
Sequence of FGFR1 (P11362 whole entry, looked up, the tested form may be a part): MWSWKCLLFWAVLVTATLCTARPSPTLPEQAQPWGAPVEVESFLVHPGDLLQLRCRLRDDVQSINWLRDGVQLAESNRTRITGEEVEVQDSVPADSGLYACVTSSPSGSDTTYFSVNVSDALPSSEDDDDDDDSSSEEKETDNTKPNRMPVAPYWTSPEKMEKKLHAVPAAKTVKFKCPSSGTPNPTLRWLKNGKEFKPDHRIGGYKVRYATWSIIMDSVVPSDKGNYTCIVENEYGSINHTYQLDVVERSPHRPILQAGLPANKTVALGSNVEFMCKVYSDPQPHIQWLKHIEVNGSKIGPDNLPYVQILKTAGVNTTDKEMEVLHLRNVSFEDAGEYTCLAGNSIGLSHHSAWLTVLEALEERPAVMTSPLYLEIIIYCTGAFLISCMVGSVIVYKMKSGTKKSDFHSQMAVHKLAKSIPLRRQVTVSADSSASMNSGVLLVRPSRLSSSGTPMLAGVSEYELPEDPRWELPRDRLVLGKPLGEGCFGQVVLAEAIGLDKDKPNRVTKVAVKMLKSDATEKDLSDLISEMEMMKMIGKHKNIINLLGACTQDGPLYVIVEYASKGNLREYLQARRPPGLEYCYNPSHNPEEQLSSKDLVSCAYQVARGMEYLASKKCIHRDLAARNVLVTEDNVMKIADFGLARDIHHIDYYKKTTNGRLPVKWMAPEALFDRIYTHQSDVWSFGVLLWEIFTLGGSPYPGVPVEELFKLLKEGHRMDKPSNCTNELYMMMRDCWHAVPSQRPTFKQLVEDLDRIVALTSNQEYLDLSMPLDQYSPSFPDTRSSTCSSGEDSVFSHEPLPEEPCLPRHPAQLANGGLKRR
Sequence of Hck (P08631 whole entry, looked up): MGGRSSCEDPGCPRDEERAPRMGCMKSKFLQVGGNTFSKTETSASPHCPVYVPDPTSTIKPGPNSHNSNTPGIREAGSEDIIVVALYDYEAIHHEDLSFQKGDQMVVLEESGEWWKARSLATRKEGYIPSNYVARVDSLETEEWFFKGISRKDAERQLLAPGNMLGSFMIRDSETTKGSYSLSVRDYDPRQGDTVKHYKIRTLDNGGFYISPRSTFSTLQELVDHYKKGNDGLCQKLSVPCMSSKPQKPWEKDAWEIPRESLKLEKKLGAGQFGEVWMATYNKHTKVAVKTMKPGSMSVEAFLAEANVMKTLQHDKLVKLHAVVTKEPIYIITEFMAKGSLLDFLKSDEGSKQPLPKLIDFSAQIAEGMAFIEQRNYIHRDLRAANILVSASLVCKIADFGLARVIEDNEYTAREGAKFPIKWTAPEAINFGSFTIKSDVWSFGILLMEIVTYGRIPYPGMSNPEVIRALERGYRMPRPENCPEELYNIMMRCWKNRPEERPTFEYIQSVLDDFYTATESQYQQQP
Sequence of Jak2 (O60674 whole entry, looked up): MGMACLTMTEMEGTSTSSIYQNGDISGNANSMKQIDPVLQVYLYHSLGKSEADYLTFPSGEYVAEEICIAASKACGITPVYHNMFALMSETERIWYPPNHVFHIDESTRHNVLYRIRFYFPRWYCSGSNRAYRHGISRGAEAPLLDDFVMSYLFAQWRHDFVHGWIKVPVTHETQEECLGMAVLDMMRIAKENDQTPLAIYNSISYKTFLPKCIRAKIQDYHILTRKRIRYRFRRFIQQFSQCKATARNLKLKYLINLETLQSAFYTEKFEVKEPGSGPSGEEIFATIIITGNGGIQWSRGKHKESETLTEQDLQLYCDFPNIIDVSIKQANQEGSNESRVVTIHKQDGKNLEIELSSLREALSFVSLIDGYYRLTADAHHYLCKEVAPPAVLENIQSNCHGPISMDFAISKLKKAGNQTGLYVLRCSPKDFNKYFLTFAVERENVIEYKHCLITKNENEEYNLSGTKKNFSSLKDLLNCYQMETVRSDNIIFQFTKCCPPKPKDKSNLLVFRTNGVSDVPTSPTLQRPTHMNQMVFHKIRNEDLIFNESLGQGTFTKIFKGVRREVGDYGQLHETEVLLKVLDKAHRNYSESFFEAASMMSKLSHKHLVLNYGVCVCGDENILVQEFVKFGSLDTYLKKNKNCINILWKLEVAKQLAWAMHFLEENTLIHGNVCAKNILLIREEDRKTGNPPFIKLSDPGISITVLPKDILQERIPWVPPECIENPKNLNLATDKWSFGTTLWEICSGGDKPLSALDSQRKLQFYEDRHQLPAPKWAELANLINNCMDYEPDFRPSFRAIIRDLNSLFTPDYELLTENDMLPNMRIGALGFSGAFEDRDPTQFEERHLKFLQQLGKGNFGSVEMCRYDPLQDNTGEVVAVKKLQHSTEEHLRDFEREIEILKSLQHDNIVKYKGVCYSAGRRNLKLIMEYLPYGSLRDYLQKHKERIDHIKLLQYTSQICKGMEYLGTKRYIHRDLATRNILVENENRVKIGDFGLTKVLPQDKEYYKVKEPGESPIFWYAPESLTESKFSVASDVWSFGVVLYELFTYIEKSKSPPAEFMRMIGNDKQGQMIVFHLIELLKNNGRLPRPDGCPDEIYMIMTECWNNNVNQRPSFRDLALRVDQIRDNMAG
Sequence of Fes (P07332 whole entry, looked up): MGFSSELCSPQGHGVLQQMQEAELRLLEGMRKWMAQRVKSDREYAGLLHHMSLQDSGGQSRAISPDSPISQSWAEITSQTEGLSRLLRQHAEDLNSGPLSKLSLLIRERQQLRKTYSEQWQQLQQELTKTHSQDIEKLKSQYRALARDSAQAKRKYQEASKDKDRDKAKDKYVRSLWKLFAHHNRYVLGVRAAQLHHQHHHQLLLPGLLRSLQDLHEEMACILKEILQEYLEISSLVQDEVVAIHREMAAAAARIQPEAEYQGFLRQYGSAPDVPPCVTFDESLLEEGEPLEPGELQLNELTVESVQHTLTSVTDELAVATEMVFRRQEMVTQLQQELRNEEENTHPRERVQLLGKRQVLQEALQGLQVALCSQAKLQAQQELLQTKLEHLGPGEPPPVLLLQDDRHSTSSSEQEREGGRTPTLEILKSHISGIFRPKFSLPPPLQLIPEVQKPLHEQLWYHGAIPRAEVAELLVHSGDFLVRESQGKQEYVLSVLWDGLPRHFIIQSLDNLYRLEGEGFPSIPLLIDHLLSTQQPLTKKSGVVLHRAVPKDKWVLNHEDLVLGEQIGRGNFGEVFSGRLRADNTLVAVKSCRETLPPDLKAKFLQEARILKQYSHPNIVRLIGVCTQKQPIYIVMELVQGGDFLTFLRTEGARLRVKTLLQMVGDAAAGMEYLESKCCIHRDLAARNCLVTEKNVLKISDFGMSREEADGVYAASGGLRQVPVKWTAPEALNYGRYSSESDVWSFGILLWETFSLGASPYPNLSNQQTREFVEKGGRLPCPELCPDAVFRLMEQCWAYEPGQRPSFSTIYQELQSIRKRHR

| Sequence | SH2 binding enrichment (SHP2-C SH2) | SH2 binding enrichment (Grb2 SH2) | SH2 binding enrichment (c-Src SH2) | phosphorylation enrichment (FGFR3) | phosphorylation enrichment (c-Abl (mouse)) | phosphorylation enrichment (c-Src) | phosphorylation enrichment (AncSZ) | phosphorylation enrichment (Fyn) | phosphorylation enrichment (Hck) | phosphorylation enrichment (EPHB2) | phosphorylation enrichment (Jak2) | phosphorylation enrichment (EPHB1) | phosphorylation enrichment (Fer (mouse)) | phosphorylation enrichment (Fes) | phosphorylation enrichment (MERTK) | phosphorylation enrichment (FGFR1) |
| --- | --- | --- | --- | --- | --- | --- | --- | --- | --- | --- | --- | --- | --- | --- | --- | --- |
| GYKVRYATWSI [FGFR1_Y210] | 2.01 | 1.39 | 1.28 | 0.669 | 0.969 | 0.582 | 1.06 | 0.54 | 0.593 | 0.425 | 1.08 | 0.573 | 0.456 | 1.18 | 0.657 | 0.519 |
| SIVEDYRPPFY [ACVRL1_Y421_G416S] | 0.622 | 0.599 | 0.462 | 0.743 | 0.995 | 0.472 | 1.22 | 0.483 | 0.427 | 0.551 | 1.1 | 0.785 | 0.804 | 1.25 | 0.496 | 0.552 |
| IGGHAYGDQFR [IDH1_Y135_R132G_YF] | 0.852 | 0.826 | 0.571 | 0.405 | 0.418 | 0.317 | 0.464 | 0.296 | 0.36 | 0.324 | 0.499 | 0.3 | 0.259 | 0.567 | 0.306 | 0.351 |
| IVWDSYTTNKV [GNB3_Y85] | 0.887 | 0.966 | 0.585 | 0.635 | 0.718 | 0.359 | 1 | 0.546 | 0.528 | 0.559 | 0.895 | 0.675 | 0.519 | 1.2 | 0.307 | 0.501 |
| LTDRGYSFVTT [ACTA1_Y200_E197D] | 6.52 | 0.988 | 10 | 0.756 | 1.17 | 0.6 | 1.38 | 0.8 | 0.677 | 1.04 | 1.88 | 0.852 | 0.653 | 1.23 | 0.846 | 0.772 |

Now from value to sequence, other results behind:

| SH2 binding enrichment (SHP2-C SH2) | SH2 binding enrichment (Grb2 SH2) | SH2 binding enrichment (c-Src SH2) | Sequence | phosphorylation enrichment (FGFR3) | phosphorylation enrichment (c-Abl (mouse)) | phosphorylation enrichment (c-Src) | phosphorylation enrichment (AncSZ) | phosphorylation enrichment (Fyn) | phosphorylation enrichment (Hck) | phosphorylation enrichment (EPHB2) | phosphorylation enrichment (Jak2) | phosphorylation enrichment (EPHB1) | phosphorylation enrichment (Fer (mouse)) | phosphorylation enrichment (Fes) | phosphorylation enrichment (MERTK) | phosphorylation enrichment (FGFR1) |
| --- | --- | --- | --- | --- | --- | --- | --- | --- | --- | --- | --- | --- | --- | --- | --- | --- |
| 0.506 | 0.861 | 1.9 | FALAEYTEVKT [ALDH1A3_Y497_YF] | 0.903 | 0.757 | 0.621 | 1.03 | 0.719 | 0.635 | 0.475 | 0.765 | 0.59 | 0.567 | 1.11 | 0.45 | 0.894 |
| 0.592 | 0.589 | 0.404 | DLDTDYGSGFP [RNASEH2A_Y206_YF] | 0.588 | 0.673 | 0.511 | 1.22 | 0.45 | 0.49 | 0.443 | 0.979 | 0.585 | 0.465 | 0.978 | 0.38 | 0.447 |
| 17.4 | 0.943 | 0.67 | GVRYIYTIDGS [DCX_Y105] | 0.743 | 0.687 | 1.86 | 1.09 | 1.76 | 0.783 | 0.552 | 0.937 | 0.6 | 0.415 | 1.31 | 0.405 | 0.487 |
